# Measured values: paper PMC6212719
# Where a chain is given by its changes, count along the chain named.
# B1: sigAP-TGTG (dsDNA)
# DNA 1: CACTGAAACTTGCCCGCTCGGGCTGTACTCGTGCGCAGTTGTGTTACAATGGTCAGCGGCGGCCGCCCGACCGATAGCGCGCGAGTATTCACGCTGATATCAACGC
# DNA 2: GCGTTGATATCAGCGTGAATACTCGCGCGCTATCGGTCGGGCGGCCGCCGCTGACCATTGTAACACAACTGCGCACGAGTACAGCCCGAGCGGGCAAGTTTCAGTG
# B2: sigAP-TG1 (dsDNA)
# DNA 1: B1 DNA 1 with T40A, G41A
# DNA 2: B1 DNA 2 with C66T, A67T
# Legend:
# [1] = target: T1, MtbRNAP core (alpha2 beta beta' omega);sigma B (Mycobacterium …, UniProt P9WGZ1;P9WGY9;P9WGY7;P9WGY5;P9WGI5 1-347;1-1178;1-1316;1-110;1-323, |); test: EMSA
# [2] = target: MtbRNAP core (alpha2 beta beta' omega);sigma B;RbpA KKAA (Mycobacterium …, UniProt P9WGZ1;P9WGY9;P9WGY7;P9WGY5;P9WGI5;P9WHJ5 1-347;1-1178;1-1316;1-110;1-323;1-111, ||K73A;K74A); test: EMSA
# [3] = target: MtbRNAP core (alpha2 beta beta' omega);sigma B;RbpA R79A (Mycobacterium …, UniProt P9WGZ1;P9WGY9;P9WGY7;P9WGY5;P9WGI5;P9WHJ5 1-347;1-1178;1-1316;1-110;1-323;1-111, ||R79A); test: KMnO4 footprinting
# [4] = target: MtbRNAP core (alpha2 beta beta' omega);sigma B;RbpA (Mycobacterium …, UniProt P9WGZ1;P9WGY9;P9WGY7;P9WGY5;P9WGI5;P9WHJ5 1-347;1-1178;1-1316;1-110;1-323;1-111, ||); test: EMSA
# [5] = target: T1, MtbRNAP core (alpha2 beta beta' …); test: EMSA; remark: listed apart in the source
Binder,Kd [1] [nM],binding result [2],binding result [3],Kd [4] [nM],binding result [5]
B1,117,binds,binds,42,
B2,,,,,binds
